In this test the target is respiratory complex III (mouse (endogenous in liver mitochondria)). As to the kind of experiment: native gel or EMSA; blue native PAGE (3-12% Bis-Tris) of digitonin-solubilised isolated liver mitochondria from control or CLS-LKO mice (standard chow); western blotting with a supercomplex antibody cocktail or subunit-specific antibodies. On the technique in general: A gel shift assay detects complexes by their altered migration in electrophoresis.

Take respiratory complex III: the stoichiometry N worked out at 2.

By stoichiometry N is commonly meant the number of molecules, sites or subunits per partner or assembly.
